The values below come from patent US20100184959A1 (AstraZeneca / MedImmune, published 2010).

Residue numbers refer to the chain shown, from its start.

B1: Fc polypeptide variant 136D04b (Fcγ1, in vitro translated) (other)
chain: AHTCPPCPAPELLGGPSVFLFPPKPKDTLMISRTPEVTCVVVDVSHEDPEVKFNWYVDGVEVHNAKTKPREEQYNSTYRVVSVLTVLHQDWLNGKEYKCKVSNKALPAPIEKIISKAKGQPREPQVYTLPPSREEMTKNQVSLTCLVKGFYPSDIAVEWESNGQPENNYKTTPPVLDSDGSFFLYSKLTVDMSRWQQGNVFSCSVMHEALHNHYTQKSLSLSPGK
notes: Fc region only, in vitro translated with 35S-methionine for RIA
B2: Fc polypeptide variant 125H10 (Fcγ1, in vitro translated) (other)
chain: B1 chain with M30T, P69L, I113T, P130A, R133W, N168D, S186G, M192K, S204F, A209S
notes: as for B1
B3: Fc polypeptide variant 126G05 (Fcγ1, in vitro translated) (other)
chain: B1 chain with F19L, V51A, I113T, K118Q, M192K, L219F
notes: as for B1
B4: Fc polypeptide variant 110H08 (Fcγ1, in vitro translated) (other)
chain: B1 chain with P22L, K24E, I113T, D177G, K187R, M192K
notes: as for B1
B5: Fc polypeptide variant 135C09 (Fcγ1, in vitro translated) (other)
chain: B1 chain with T3A, R79C, S82G, D90N, N93D, I113T, L129S, M192K, N199S
notes: as for B1
B6: Fc polypeptide variant 135E07 (Fcγ1, in vitro translated) (other)
chain: B1 chain with H2Y, P8S, V101A, E111D, I113T, K116R, S142C, M192K
notes: as for B1
B7: Fc polypeptide variant 110B09 (Fcγ1, in vitro translated) (other)
chain: B1 chain with N54D, R70Q, V83A, I113T, I155V, T172A, V190A, M192K, K217E
notes: as for B1
B8: Fc polypeptide variant 136G11 (Fcγ1, in vitro translated) (other)
chain: AHTCPPCPAPELLGGPSVFLFPPKAKDTLMISRTPKVTCVVVDVSHEDPEVKFNWYVNGVEVHNARTKPREEQYDSAYRVVSVLTVLHQDWLNGKEYKCEVSNKALPAPIEKTISKAKGRPREPQVYTLPPAREEMTKNQVSPTCLVKGFYPSDIAVEWESNGQPENNYKTTPPVLDSDGSFFLYSKLTVDKSRWQQGNVFSCSVMHEALHNHYTQKSLSLSPGK
notes: as for B1
B9: Fc polypeptide variant 136D04a (Fcγ1, in vitro translated) (other)
chain: B1 chain with P223R
notes: as for B1
B10: Fc polypeptide variant 126F07 (Fcγ1, in vitro translated) (other)
chain: B1 chain with P6L, T67A, I113T, L143Q, N167S, M192K, S218G
notes: as for B1
B11: Fc polypeptide variant 125B01 (Fcγ1, in vitro translated) (other)
chain: B1 chain with H2N, F21L, I113T, T171A, M192K, H211P
notes: as for B1
B12: Fc polypeptide variant 135A09 (Fcγ1, in vitro translated) (other)
chain: B1 chain with E47K, Y78H, I113T, Q120R, M192K, V200I, G224A
notes: as for B1
B13: Fc polypeptide variant 121F02 (Fcγ1, in vitro translated) (other)
chain: B1 chain with F21S, P25L, D43V, V44A, I113T, S161N, T189I, M192K
notes: as for B1
B14: Fc polypeptide variant 125E05 (Fcγ1, in vitro translated) (other)
chain: B1 chain with V18A, S45G, I113T, G119E, E134G, M192K
notes: as for B1
B15: Fc polypeptide variant 3C11 (Fcγ1, in vitro translated) (other)
chain: B1 chain with I113T, Q125R, N139Y, M192K, K217R
notes: as for B1
B16: Fc polypeptide variant 2C06 (Fcγ1, in vitro translated) (other)
chain: B1 chain with E61G, N93K, E111G, I113T, R122Q, L143P, M192K, S220T
notes: as for B1
B17: Fc polypeptide variant 2H06 (Fcγ1, in vitro translated) (other)
chain: B1 chain with E47G, Y56H, N103S, I113T, K148R, M192K
notes: as for B1
B18: Fc polypeptide variant 2A11 (Fcγ1, in vitro translated) (other)
chain: B1 chain with C39Y, K68E, L84F, Q89R, E111G, I113T, M192K, Q216L
notes: as for B1
B19: Fc polypeptide variant 2F01 (Fcγ1, in vitro translated) (other)
chain: AHTCPPCPAPELLGGPPVFLFPPKPKDTLMIPRTPEVTCVVVDVNHEDPEVKFNWYVDGVEVRNAKTKPREEQYNSTYRVVSVLTVLHQDWLSGKEYKCKVSNKALPAPIEKTISKAKGQPREPQVYTLPPSREEMTKNQVSLTCLVKGLYPSDITVEWESNGQPENDCKTTPPVLDSDGSSFLYSKLTVDKSRWQQGNVFSCSVMHKAPHNHYTQKSLSLSPGE
notes: as for B1

T1 sequence (P08637 17-208 F176V): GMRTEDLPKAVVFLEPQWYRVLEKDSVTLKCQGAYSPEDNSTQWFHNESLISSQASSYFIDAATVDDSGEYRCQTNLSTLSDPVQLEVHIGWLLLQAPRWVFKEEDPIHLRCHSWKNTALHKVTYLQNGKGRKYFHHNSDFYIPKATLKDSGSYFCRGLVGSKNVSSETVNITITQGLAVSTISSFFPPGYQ

One experiment has as its target T1, human FcγRIIIa V158 allotype, extracellular domain (human, UniProt P08637 17-208).
T1 construct: extracellular domain; expressed in HEK-EBNA cells; also called hFcγRIIIa; CD16; not shown: Flag10His tag of the vector
In words: RIA, 35S-labelled Fc on coated receptor. The source says:
Fc polypeptide variants were screened for binding to FcγRIIIa using a RIA (radio immunoassay) as described in Jermutus et al. (2001, PNAS 98(1): 75-80). The Fc region from the plasmid for each variant was PCR amplified to produce a linear DNA template. This template was purified and a T7 promoter sequence attached at the 5′ end to enable in vitro transcription. The resulting mRNA was purified using G25 Sephadex™ columns. For each variant, in vitro translations in the presence of 35S-labelled methionine were set up at 37° C. for 40 min. The translations were stopped using PBS with 0.05% Tween 20. The translation mixture was added to a plate coated with 100 nM hFcγRIIIa and incubated for 2 hours at room temperature. The plates were washed three times in PBS with 0.05% Tween 20 and three times in PBS. The bound protein was eluted with 0.1M triethylamine and the radiolabel quantified by liquid scintillation counting.
Take B1: the “RIA for RIIIa (V158)” value came to 2.3 fold over wild-type.

On to B2, for which the “RIA for RIIIa (V158)” value came to 1.7 fold over wild-type.

On to B3, for which the “RIA for RIIIa (V158)” value came out at 1.8 fold over wild-type.

Turning to B4, the “RIA for RIIIa (V158)” value stood at 2.7 fold over wild-type.

Take B5: the “RIA for RIIIa (V158)” value was found to be 1.7 fold over wild-type.

Consider B6, for which the “RIA for RIIIa (V158)” value came to 1.7 fold over wild-type.

As to B7, the “RIA for RIIIa (V158)” value was 4.4 fold over wild-type.

B8: the “RIA for RIIIa (V158)” value came to 2.3 fold over wild-type.

Regarding B9, the “RIA for RIIIa (V158)” value was 2.3 fold over wild-type.

For the molecule B10, the “RIA for RIIIa (V158)” value came to 1.9 fold over wild-type.

In the case of B11, the “RIA for RIIIa (V158)” value turned out to be 1.3 fold over wild-type.

For the molecule B12, the “RIA for RIIIa (V158)” value amounted to 3.4 fold over wild-type.

In the case of B13, the “RIA for RIIIa (V158)” value was 1.7 fold over wild-type.

For the molecule B14, the “RIA for RIIIa (V158)” value is 4.7 fold over wild-type.

In the next experiment the target is T2, human C1q (human, UniProt P02745 23-245; P02746 28-253; P02747 29-245).
T2 construct: Human C1q (Sigma) in the ELISA; hC1q coated at 100 nM in the RIA; also called hC1q
T2 sequence (P02745 23-245 limits assumed, chain 1 of 3): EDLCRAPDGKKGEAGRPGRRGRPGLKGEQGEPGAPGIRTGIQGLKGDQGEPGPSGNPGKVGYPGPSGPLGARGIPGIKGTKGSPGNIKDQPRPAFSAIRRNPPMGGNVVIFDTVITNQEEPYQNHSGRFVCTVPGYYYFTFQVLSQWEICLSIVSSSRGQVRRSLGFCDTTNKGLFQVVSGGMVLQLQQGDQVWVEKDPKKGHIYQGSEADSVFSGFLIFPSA
T2 sequence (P02746 28-253 limits assumed, chain 2 of 3): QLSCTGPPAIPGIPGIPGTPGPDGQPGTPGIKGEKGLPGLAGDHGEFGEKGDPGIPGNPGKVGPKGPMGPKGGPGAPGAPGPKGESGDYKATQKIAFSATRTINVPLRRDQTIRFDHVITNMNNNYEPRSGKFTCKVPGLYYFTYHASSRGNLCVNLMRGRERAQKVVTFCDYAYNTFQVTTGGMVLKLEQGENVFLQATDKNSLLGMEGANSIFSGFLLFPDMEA
T2 sequence (P02747 29-245 limits assumed, chain 3 of 3): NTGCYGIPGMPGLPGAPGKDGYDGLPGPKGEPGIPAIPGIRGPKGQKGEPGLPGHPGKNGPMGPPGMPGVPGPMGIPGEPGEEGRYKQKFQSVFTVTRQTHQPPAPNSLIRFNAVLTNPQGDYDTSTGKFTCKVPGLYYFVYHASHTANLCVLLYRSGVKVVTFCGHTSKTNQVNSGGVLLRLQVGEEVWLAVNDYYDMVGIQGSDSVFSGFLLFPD
In words: RIA, 35S-labelled Fc on coated C1q. The source says: IgG1 Fc variants arising from round three outputs of Fcγ1 selections against human C1q using ribosome display, were screened for binding using the primary RIA as described in Jermutus et al. (2001, PNAS 98(1): 75-80). In brief, the Fc region from the plasmid for each variant (96 well format) was PCR amplified to produce a linear DNA template. This template was gel purified and reamplified attaching the T7 promoter sequence for T7 directed in vitro transcription and the resulting mRNA purified on G25 Sephadex columns. For each variant, in vitro translations in the presence of 35S-labelled methionine was performed at 37° C. for 40 mins. The translations were stopped with PBS with 0.05% Tween 20. The translation mixture was incubated on a plate coated with 100 nM hC1q for 2 hours at room temperature. Plates were washed three times in PBS with 0.05% Tween 20 and three times in PBS. The remaining radioactivity was eluted with 0.1M triethylamine and quantified by liquid scintillation counting.
As for B15, the “RIA for C1q” value came to 1.2 fold over wild-type.

Consider B16, for which the “RIA for C1q” value is 1.4 fold over wild-type.

Turning to B17, the “RIA for C1q” value came out at 1.2 fold over wild-type.

As to B18, the “RIA for C1q” value stood at 2.4 fold over wild-type.

Regarding B19, the “RIA for C1q” value worked out at 1.5 fold over wild-type.
